Reference: article PMC3458052, “Single Amino Acid Substitutions in the Chemotactic Sequence of Urokinase Receptor Modulate Cell Migration and Invasion” (PLoS ONE, 2012)

Biological target: T1, uPAR carrying the S90P substitution (human, UniProt Q03405 23-305, S90P)
T1 construct: human uPAR, whole cDNA in pcDNA3 with S90P made by site-specific mutagenesis, on 293 cells; also called uPAR^S90P; source: on intact adherent cells and in RIPA lysate
Assay: radioligand binding; 10 nM ^125I-Vn with increasing unlabeled Vn on adherent transfected 293 clones (2×10^5 cells/well), 3 hours at 4°C, binding buffer DMEM, 1 mg/ml BSA, 10 mM Hepes pH 7.4; surface-bound label recovered by acid wash pH 3.0; apparent Kd; cells also carry endogenous αvβ5
Details: one partner purified

T1 sequence (Q03405 23-305 S112P): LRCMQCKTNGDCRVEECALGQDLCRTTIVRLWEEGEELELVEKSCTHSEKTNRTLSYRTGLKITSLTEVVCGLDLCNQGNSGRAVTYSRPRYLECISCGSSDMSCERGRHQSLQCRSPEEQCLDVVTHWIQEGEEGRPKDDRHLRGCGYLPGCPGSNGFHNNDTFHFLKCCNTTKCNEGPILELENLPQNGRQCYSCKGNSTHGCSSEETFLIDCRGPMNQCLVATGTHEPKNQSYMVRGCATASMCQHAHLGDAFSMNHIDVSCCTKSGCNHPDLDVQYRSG

IC50: ~10 nM
B1: vitronectin (ligand, UniProt P04004 20-478, looked up)
chain: DQESCKGRCTEGFNVDKKCQCDELCSYYQSCCTDYTAECKPQVTRGDVFTMPEDEYTVYDDGEEKNNATVHEQVGGPSLTSDLQAQSKGNPEQTPVLKPEEEAPAPEVGASKPEGIDSRPETLHPGRPQPPAEEELCSGKPFDAFTDLKNGSLFAFRGQYCYELDEKAVRPGYPKLIRDVWGIEGPIDAAFTRINCQGKTYLFKGSQYWRFEDGVLDPDYPRNISDGFDGIPDNVDAALALPAHSYSGRERVYFFKGKQYWEYQFQHQPSQEECEGSSLSAVFEHFAMMQRDSWEDIFELLFWGRTSAGTRQPQFISRDWHGVPGQVDAAMAGRIYISGMAPRPSLAKKQRFRHRNRKGYRSQRGHSRGRNQNSRRPSRATWLSLFSSEESNLGANNYDDYRMDWLVPATCEPIQSVFFFSGDKYYRVNLRTRRVDTVDPPYPRSIAQYWLGCPAPGHL
modifications: ^125I (radio-iodinated with Na^125I using IODO-BEADS) on the tracer; the competitor is unlabeled
notes: vitronectin (Vn), bought from Promega; also called Vn; ^125I-Vn; source: bought: Promega
